Assays:
[1] = test system: new vessel growth; details: rats, given systemically; cited from earlier work
[2] = test system: primary rat retinal pigment epithelial cells (RPEs); details: cited from earlier work
[3] = Stability testing of peptide variants (scored); assay type: physicochemical
Text: Stability, Miles Assay activity and corneal angiogenesis activities of a number of the peptides were investigated, and scored.

[4] = test system: VEGF-induced vascular permeability; assay: Miles assay (Evans Blue dye extravasation after intradermal VEGF with PKC modulator); assay type: in vivo; details: increasing VEGF doses
Experimental: In this study animals were injected intravenously with Evans Blue Dye. Animals were administered VEGF in increasing doses with a PKC modulator intradermally. […] The spots were removed, the dye extracted and quantities were measured spectrophotometrically.
A parent compound, βIV5-3 (SEQ ID NO:6) and a peptide variant—a linear version of the peptide, linear βI, having the sequence […] (SEQ ID NO:18)—were tested in the Miles assay.
The Miles assay was similarly performed with a βIPKC (βIV5-3 (SEQ ID NO:6)) inhibitor, a βIIPKC (βIIV5-3 (SEQ ID NO:8)) inhibitor, a classical ((β-, α-, γPKC) PKC inhibitor (βC2-4 (SEQ ID NO:10), and the scrambled control 1 peptide from Example 2 (SEQ ID NO:12) conjugated to TAT (SEQ ID NO:5).

[5] = Topical distribution of radiolabeled TAT peptide after instillation to rabbit eyes; assay type: in vivo; details: rabbit eye
Experimental: Radiolabeled TAT peptide [^14C]-YGXaaRKKRRQRRR (SEQ ID NO:19) (10 μCi) was applied in 5 instillations to each eye (50 μCi total—4 rabbits, 2 eyes each, n=8 eyes, 3 mg total applied to each eye). Each application was 1 hour apart, animals sacrificed 15 minutes after last application. Tissue samples were taken and assayed to determine topical distribution.

## Cn1cc(C2=C(c3cn(C4CCN(Cc5ccccn5)CC4)c4ccccc34)C(=O)NC2=O)c2ccccc21 [LY317615]
[1]
  new vessel growth: prevent new vessel growth

## CCCCCCCCCCCCCC(=O)O[C@@H]1[C@@H](C)[C@@]2(O)[C@@H](C=C(CO)C[C@]3(O)C(=O)C(C)=C[C@@H]23)[C@@H]2C(C)(C)[C@]12OC(C)=O [PMA]
[2]; exposure for 24 hours
  PKC-delta level in RPEs: significantly down regulated
[2]; normal or high glucose, or hypoxia, treatment for 24 hours
  Secretion of VEGF: significantly reduced

## GEEVIRNISGYGRKKRRQRRR [bII linear analog]
[3]
  Stability testing: +++

## GKLFIMNADGYGRKKRRQRRR [Linear bI (4)]
[3]
  Stability testing: ++

## GKLFIMNAGGYGRKKRRQRRR [Linear bI (6)]
[3]
  Stability testing: ++

## GKLFIMNGGYGRKKRRQRRR (GKLFIMNLSGYGRKKRRQRRR) [linear bI, a linear version of the peptide βIV5-3]
[4]
  VEGF-induced vascular permeability in comparison to vehicle alone: reduced vascular permeability

## GKLFIMNLDGYGRKKRRQRRR [Linear bI (3)]
[3]
  Stability testing: ++

## GKLFIMNLGYGRKKRRQRRR [Linear bI (5)]
[3]
  Stability testing: +++

## GKLFIMNLSGYGRKKRRQRRR (GKLFIMNAGGYGRKKRRQRRR) [bI linear analog]
[3]
  Stability testing: ++

## GQEVIRNGGYGRKKRRQRRR [linear bII]
[3]
  Stability testing: −

## GSLNPEWNETGGYGRKKRRQRRR [linear bC2-4]
[3]
  Stability testing: +++

## [^14C]-YGXaaRKKRRQRRR [Radiolabeled TAT peptide]
[5]; 5 instillations 1 hour apart, 3 mg total per eye, 15 minutes after last application
  Topical distribution, Sclera: 28.4 μ/g tissue
[5]; topical
  Choroid, applied total dose: 0.003%
  Retina, applied total dose: 0.001%
  Sclera, applied total dose: 0.134%
  Vitreous, applied total dose: 0.006%

Reference: US20110098224A1, “PROTEIN KINASE C PEPTIDE MODULATORS OF ANGIOGENESIS” (priority 2005, published 2011)
